{
  "source": "patent US20250121089A1",
  "about": "“COMPOSITIONS AND METHODS FOR ENHANCING THE EFFECT OF A TROP-2 SPECIFIC THERAPEUTIC” (priority 2023, published 2025)",
  "key": {"[1]": {"tested_on": "A549 cells", "experiment": "Cytotoxic effect (cell count by flow cytometer), TTFields with or without Sacituzumab Govitecan", "format": "cell-based, human", "conditions": "concomitant with TTFields 1.62 V/cm RMS, 150 kHz, 72 h; FIG. 3", "procedure": "(§1) Tests were performed on three different cell types: A549, A2780 and 4T1. A549 cells are adenocarcinomec human alveolar basal epithelial cells. A2780 is a human ovarian cancer cell line. 4T1 is a breast cancer cell line derived from the mammary gland tissue of a mouse BALB/c strain.\n(§2) NSCLC cells A549 were treated for 72 h with TTFields at an intensity of 1.62 V/cm RMS and a frequency of 150 kHz using the Inovitro system. TTFields were applied to the cells in the absence or presence of the Trop2 inhibitor Sacituzumab Govitecan. Treated cells were counted using a flow cytometer, and cytotoxic effect was calculated relative to control cells."}, "[2]": {"tested_on": "4T1 cells", "experiment": "Cytotoxic effect (cell count by flow cytometer), TTFields with or without Sacituzumab Govitecan", "format": "cell-based, mouse", "conditions": "concomitant with TTFields 1.62 V/cm RMS, 150 kHz, 72 h; FIG. 9", "procedure": "as §1\nas §2, with “Mammary carcinoma” for “NSCLC”, “4T1” for “A549”"}, "[3]": {"tested_on": "A2780 cells", "experiment": "Cytotoxic effect (cell count by flow cytometer), TTFields with or without Sacituzumab Govitecan", "format": "cell-based, human", "conditions": "concomitant with TTFields 1.62 V/cm RMS, 200 kHz, 72 h; FIG. 6", "procedure": "as §1\nas §2, with “Ovarian carcinoma” for “NSCLC”, “A2780” for “A549”, “200” for “150”"}, "[4]": {"tested_on": "4T1 cells", "experiment": "Apoptosis, annexin V / 7AAD flow cytometry, TTFields with or without Sacituzumab Govitecan", "format": "cell-based, mouse", "conditions": "concomitant with TTFields 1.62 V/cm RMS, 150 kHz, 72 h, FIG. 11", "procedure": "(§3) Tests were performed on three different cell types: A549, A2780 and 4T1. A549 cells are adenocarcinomec human alveolar basal epithelial cells. A2780 is a human ovarian cancer cell line. 4T1 is a breast cancer cell line derived from the mammary gland tissue of a mouse BALB/c strain. Lastly, like A549 cells (FIGS. 5) and A2780 cells (FIG. 8), concomitant treatment of TTFields with Sacituzumab Govitecan enhanced the apoptotic effect in 4T1 cells (FIG. 11). Mammary carcinoma cells 4T1 were treated for 72 h with TTFields at an intensity of 1.62 V/cm RMS and a frequency of 150 kHz using the Inovitro system. TTFields were applied to the cells in the absence or presence of the Trop2 inhibitor Sacituzumab Govitecan. Treated cells were double-stained with FITC-conjugated annexin V and 7-aminoactinomycin D (7AAD), and data acquisition was performed using a flow cytometer. AnnexinV−7AAD−, live cells; AnnexinV+7AAD−, cells at early apoptosis; AnnexinV+7AAD+, cells at late apoptosis."}, "[5]": {"tested_on": "A549 cells", "experiment": "Apoptosis, annexin V / 7AAD flow cytometry, TTFields with or without Sacituzumab Govitecan", "format": "cell-based, human", "conditions": "concomitant with TTFields 1.62 V/cm RMS, 150 kHz, 72 h, FIG. 5", "procedure": "as §3, with “[…] NSCLC cells” for “Lastly, like”, “A549” for “A549 cells (FIGS. 5) and A2780 cells (FIG. 8), concomitant treatment of TTFields with Sacituzumab Govitecan enhanced the apoptotic effect in 4T1 cells (FIG. 11). Mammary carcinoma cells 4T1”, “cytometer.” for “cytometer. AnnexinV−7AAD−, live cells; AnnexinV+7AAD−, cells at early apoptosis; AnnexinV+7AAD+, cells at late apoptosis.”"}, "[6]": {"tested_on": "A2780 cells", "experiment": "Overall effect (cytotoxic x clonogenic effect), TTFields with or without Sacituzumab Govitecan", "format": "cell-based, human", "conditions": "concomitant with TTFields 1.62 V/cm RMS, 200 kHz, 72 h; re-plated, grown 7-14 days; FIG. 7", "procedure": "as §1\n(§4) Ovarian carcinoma cells A2780 were treated for 72 h with TTFields at an intensity of 1.62 V/cm RMS and a frequency of 200 kHz using the Inovitro system. TTFields were applied to the cells in the absence or presence of the Trop2 inhibitor Sacituzumab Govitecan. Treated cells were harvested, re-plated, and grown for an additional 7-14 days. Colonies were stained (0.5% crystal violet solution), counted, and clonogenic effect was calculated relative to control. Overall effect was calculated by multiplying the cytotoxic and clonogenic effects."}, "[7]": {"tested_on": "A2780 cells", "experiment": "Apoptosis, annexin V / 7AAD flow cytometry, TTFields with or without Sacituzumab Govitecan", "format": "cell-based, human", "conditions": "concomitant with TTFields 1.62 V/cm RMS, 200 kHz, 72 h, FIG. 8", "procedure": "Tests were performed on three different cell types: A549, A2780 and 4T1. A549 cells are adenocarcinomec human alveolar basal epithelial cells. A2780 is a human ovarian cancer cell line. 4T1 is a breast cancer cell line derived from the mammary gland tissue of a mouse BALB/c strain. […] Ovarian carcinoma cells A2780 were treated for 72 h with TTFields at an intensity of 1.62 V/cm RMS and a frequency of 200 kHz using the Inovitro system. TTFields were applied to the cells in the absence or presence of the Trop2 inhibitor Sacituzumab Govitecan. Treated cells were double-stained with FITC-conjugated annexin V and 7-aminoactinomycin D (7AAD), and data acquisition was performed using a flow cytometer."}, "[8]": {"tested_on": "A549 cells", "experiment": "Overall effect (cytotoxic x clonogenic effect), TTFields with or without Sacituzumab Govitecan", "format": "cell-based, human", "conditions": "concomitant with TTFields 1.62 V/cm RMS, 150 kHz, 72 h; re-plated, grown 7-14 days; FIG. 4", "procedure": "as §1\nas §4, with “NSCLC” for “Ovarian carcinoma”, “A549” for “A2780”, “150” for “200”"}, "[9]": {"tested_on": "4T1 cells", "experiment": "Overall effect (cytotoxic x clonogenic effect), TTFields with or without Sacituzumab Govitecan", "format": "cell-based, mouse", "conditions": "concomitant with TTFields 1.62 V/cm RMS, 150 kHz, 72 h; re-plated, grown 7-14 days; FIG. 10", "procedure": "as §1\nas §4, with “Mammary” for “Ovarian”, “4T1” for “A2780”, “150” for “200”"}},
  "data": [
    {"substance": "Sacituzumab Govitecan", "values": [
      {"measurement": "A549 cell growth (cytotoxic effect relative to control cells)", "setting": "[1]", "value": "synergistically inhibited"},
      {"measurement": "4T1 cell growth (cytotoxic effect relative to control cells)", "setting": "[2]", "value": "synergistically inhibited"},
      {"measurement": "A2780 cell growth (cytotoxic effect relative to control cells)", "setting": "[3]", "value": "synergistically inhibited"},
      {"measurement": "apoptotic effect in 4T1 cells", "setting": "[4]", "value": "enhanced"},
      {"measurement": "apoptotic effect in A549 cells", "setting": "[5]", "value": "enhanced"},
      {"measurement": "overall effect in A2780 cells (cytotoxic x clonogenic effects)", "setting": "[6]", "value": "synergistically elevated"},
      {"measurement": "apoptotic effect in A2780 cells", "setting": "[7]", "value": "enhanced"},
      {"measurement": "overall effect in A549 cells (cytotoxic x clonogenic effects)", "setting": "[8]", "value": "synergistically elevated"},
      {"measurement": "overall effect in 4T1 cells (cytotoxic x clonogenic effects)", "setting": "[9]", "value": "synergistically elevated"}
    ]}
  ]
}
